Measurements: patent US20180147231A1, “METHOD FOR TREATMENT AND PROGNOSIS OF COLORECTAL CANCER” (Oxford University Innovation Limited, priority 2015, published 2018)

Assays:
[1] = tested on: SOCS3 expression in CRC lines (Colo205, LS103, SW948, T84, SW480, HCT116); assay: qPCR of SOCS3 after IL-22 stimulation of CRC cell lines; format: cell-based, human; conditions: 24 h stimulation with IL-22, n=3
From the text: (A) qPCR analysis of IL22RA1 expression level on 3 KRAS-WT (Colo205, LS103, SW948) and 3 KRAS-mutant (T84, SW480, HCT116) CRC cell lines. n=3 *p<0.05, **p<0.01, one-way ANOVA with Tukey's post test for multiple comparisons. (B) Representative FACS plots of IL-22RA1 expression on the Colo205 (KRAS-WT, IL-22RA1^high), T84 (KRAS-Mut, IL-22RA1^high), and SW480 (KRAS-mutant, IL-22RA1^low) lines. (C) Western blot analysis of activation of STAT3, ERK, and Akt signaling pathways in 6 CRC lines following 24 h stimulation with 1 ng/mL IL-22, 10 ng/mL IL-22, and 1 ng/mL IL-6. 1 blot representative of 3 independent experiments.
Colo205, LS1034, SW948, SW480, T84, and HCT116 (ATCC) colorectal cancer cell (CRC) lines were a generous gift from Dr. Simon Leedham and were confirmed to be mycoplasma free. X-MAN DLD-1 isogenic cells were purchased from Horizon Discovery. […]
RNA was extracted from cultured monolayers of CRC lines, suspensions of LIM1863 spheroids, and CRC line derived spheres using the RNeasy Mini Kit (Qiagen) according to the manufacturers protocol. cDNA was synthesized using the High-Capacity cDNA Reverse Transcription Kit (Applied Biosystems). Gene expression was analyzed using Taqman® Gene Expression Assays (Applied Biosystems) and run with Precision 2× Master Mix (Primerdesign) in 384 well plates using the ViiA7 Real-Time PCR System (Applied Biosystems). […]

[2] = tested on: DLD-1 KRAS MUT cells; assay: Chemotherapy killing assay (MTT), DLD-1 KRAS MUT; format: cell-based, human; conditions: 48 h pre-treatment with 10 ng/mL IL-22, then 50 μM 5-FU for 48 h
Procedure: (§1) Therefore this isogenic pair differs only in KRAS mutation status and allows a clean system for comparison of KRAS-dependent IL-22 effects without inter-cell line mutational heterogeneity. (A) Representative FACS plots of IL-22RA1 expression and quantification of mean fluorescence intensity (WI) showing similar IL-22RA1 expression in the isogenic pair (4 experimental replicates). […] MTT was added 2 h prior to end of 48 h incubation. Formazan particles were dissolved in DMSO and absorbance was measured at 540 nm. Raw absorbances are blank corrected, normalized to a no treatment, and represented as a % viability compared to the no treatment condition. n=5 independent experiments with 3 experimental replicates. p values computed by non-parametric Mann-Whitney test comparing 5 FU alone to IL-22 pretreatment with 5 FU for each DLD-1 line.
Colo205, T84, SW480, and DLD-1 cells were seeded at a density of 1×10^4 cells/well in 48 well plates. Cells were pre-treated for 48 h with 10 ng/mL IL-22, then subjected to 50 μM oxaliplatin (Sigma) or 5-fluorouracil (Sigma) or vehicle control (DMSO) for 48 h. 50 μg Methylthiazolyldiphenyl-tetrazolium bromide (MTT) (Sigma) was added to each well 2 h prior to the end of incubation. […] Absorbance was measured at 540 nm on Spectrostar Nano plate reader (BMG Labtech).

[3] = tested on: DLD-1 KRAS MUT cells (heterozygous KRAS G13D); assay: Phosflow analysis of intracellular signaling, DLD-1 KRAS MUT; format: cell-based; conditions: 30 min 10 ng/mL recombinant human IL-22
Procedure: as §1
Adherent Colo205, T84, SW480, and DLD-1 cells were dissociated using StemPro® Accutase® (Life Technologies), filtered through […] filters, and counted by Trypan Blue exclusion. 5×10^5 cells of each line were stained with 5 μL Human IL-22 R alpha 1 Phycoerythrin MAb (Clone 305405) (R&D Systems) or […] isotype rat anti-mouse IgG1 PE (BD Biosciences) and incubated for 30 minutes at room temperature. Cells were washed with PBS, 0.1% BSA, 2 mM EDTA and acquired on the BD LSRII. Analysis was performed using FlowJo (Tree Star) software. For analysis of intracellular signaling pathways by phosflow, DLD-1 isogenic cells were plated in 6 well plates (1.5 million cells/well) in serum free RPMI and allowed to adhere overnight. DLD-1 cells were then stimulated or not for 30 minutes with increasing doses of recombinant human IL-22 (0.001 ng/mL-100 ng/mL). Cells were dissociated with TrypLE, fixed for 10 min at 37° C. with BD Cytofix Fixation Buffer. Cells were then permeabilized in BD Phosflow Perm Buffer III for 30 min on ice. […]

B1: IL-22: recombinant human IL-22 (R&D Systems), IL-10 superfamily cytokine; human sequence SEQ ID NO: 5 (protein, listed as Homo sapiens)
chain: MAALQKSVSSFLMGTLATSCLLLLALLVQGGAAAPISSHCRLDKSNFQQPYITNRTFMLAKEASLADNNTDVRLIGEKLFHGVSMSERCYLMKQVLNFTLEEVLFPQSDRFQPYMQEVVPFLARLSNRLSTCHIEGDDLHIQRNVQKLKDTVKKLGESGEIKAIGELDLLFMSLRNACI
SOCS3 expression (confirmation of active downstream IL-22 signaling) [1]: upregulation of SOCS3 | Protection against 5-fluorouracil mediated cell death [2]: protects against 5 fluorouracil mediated cell death | Phosphorylated ERK1/2 [3]: not IL-22 inducible | Phosphorylated S6 [3]: IL-22 inducible phosphorylated S6 | Phosphorylated STAT3 [3]: identical extent of phosphorylated STAT3
